From the domain aggregation screens of Martell et al. (2025)

Experiment: soluble fraction after stress (log2 fold change); higher = more stays soluble; pooled small domains, quantitative proteomics
Conditions: stress: pH 4
Outline: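 Pooled custom libraries of small protein domains were subjected to pH 4 and measured by high-throughput quantitative proteomics. The log2 fold change in soluble amount per domain is reported, higher values meaning more remained soluble. This is used as a measure of aggregation propensity.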

| Sequence | soluble fraction (log2) |
| --- | --- |
| HMYSIKEFSFEVTTPGQRLDLFLSEELIGQTRSSIQNLILKKYVTVNGQVSKASYKVKTGEFISVKIPV | 0.22 |
| HMFWEGYLAARREQFLKDQQVLLGNEFRSNPDFWLEVASKEWAVVEERLSTGADVSEEVQETMGLDF | -1.5 |
| HMKIRIIKTASNAKAVQIVSYKNNKRIVLQHIGSAHTDETLNDLKILAEEWIKDYNHQLSIF | -0.671 |
| HMIVEIVPSALHGERVDRIVAFILDVSRSVASGLVERGAVHVDGSVETSGKVRLVEGQEVSVDPSQVPG | -0.528 |
| HMNSTRAPYLLDFEEDAAIREARRAGLVPRIARQPSGEPVGRVILQSHDYDYPMKRGDTILITISSG | -0.797 |
| HMSTPENLGGRNTAKARISWLENGVKQELESDFPAAEVVKLSSRFGGEVPELTVIRPSLEDIYLKMIG | -0.269 |
| HMIGERIKRARAAAGLSMQALGKQVGISANMVKKYEHDQSMPSSGVLLKLATALSVRTEYFFRPA | -0.0616 |
| HMWKSEAGKKIIESLAQKYNKSNAQIILRWHIQMGYIVIPGARSENHIKENINIFDFKLTNEEINNILKLN | -0.124 |
| HMQISDSASVKTVVAEAIAANPKAVADFMNGKDTATRYLVGQVMKITKGQAKPELVNQLVLESLAELKEK | 0.226 |
| HMHLDIGQLVQRILADIQVGKLADGQRKLPAEPVLMERYQVTRYTLRQALKQLSNMGYTYQMHGIGTFVRQ | -0.211 |
| HMQLTQEAIENLFKITTAKKFREELEKLVVTDSEKKAFAYFTVYHPKLKELPFAILKSVENYTGISI | -0.319 |
| HMDDDAELLLKKLSAAGGELPFHDRSEPAEIEAAFGLSKSAFKRALGKLLKAGKVVKTQQGIQLK | 0.266 |
| HMTTGTVKWFNDAKGFGFITPDDRSVDVFVHYSNIVGQSGRRTLMEGERVEYEAIEGPKGPQATDVARA | -1.06 |
| HMIRSNLAEQAYAQLKALIHDFQLLPGDRFSENEMGTRLGVSRTPVREALFRLRNEGFLEVESKAGWYVK | -1.73 |
| HMELPPLEPIDRILVVQQPINIREQPGVLAKKIGRVSSGETLTILAKVSGQDWYFVETDNGGRGYVFKRV | -0.222 |
| HMQQYLDAYDKALAFGIAMNKLPSYENLTLDDKEDVDKLKEIYDGMSNYEKTFVAKDFTDKLDRYVKRIE | 0.144 |
| HMTGWINVDKNWYYMNNSGSMARGMINVNNVSYYLDENGKMLSNTTVNVNGTDYRIDASGAMSQI | -0.153 |
| HMRILGIDPGTRITGYGIIDIEGNRLRHVDNGIIKTRSSDALPLRLKVIYDGLTAVLKQYSPQAV | -0.629 |
| HMLKLTDRQKVILSILMSDGEKTASWIASQLGVGLRSVQLDLSYLRNNGFIKKASKSTHSAWIVLKK | 0.205 |
| HMITASNYFIEVERIGIETLPETLKKGHDLVVKSTSNGTNWANYQTSEGIKKVIDLYFQKLNEYANTV | -1.57 |
| HMPLTKKLETLFSLFPKYEKELKKKGVTRIHVWANYKEEYPDGIGRSQFIHYYSFWKKQVSP | -0.045 |
| HMNLFKAPMPGLIRTIVVAEGQEVKKGDVILILEAMKMENALKSPADLVVKSIKVQQGQAVEKNQLLIEF | -0.14 |
| HMRGADNAASILKEVGPHPEDGKPITVRSGRYGPYVKHGTTNATLPKDIKPEEITLDEAIALINERVAKG | -0.143 |
| HMQAKNGTVTGSVVNVRGGAGTQYAVKGKASRGTKVTILGQQSSWLNVRLDNGVTGWIHADYVQISE | -1.43 |
| HMNATPDMERYWASSAAEGRALEPLYAVSRGDGGEPLWWSPSRAQAERMAREEGGPLTVDRIDPP | -0.0463 |
| HMTVSIGSVIARERRLRGDTQQELAERLGVSKAAVSKWEVGQSIPDVTLLPRIAAYFSLTLDEL | -0.276 |
| HMRTSIWTAIAHSLRSDIGSGVYGPDDKLPTESALAARFGVNRHTVRHAIKALTDEGLVLPRRGAGVFVTS | -0.207 |
| HMARRKRDIDSDINVKVFEHWLDNLDSASRESFSAFAEETFSPIQVYLYAKFLGYESSIIAVDHWVAVAYP | -0.574 |

| Sequence | soluble fraction (log2) |
| --- | --- |
| HMANLLNLREIPVANIRPELTMFLIPGENITQAFQTIRDQVVFTNKRLIVANVQGLTGKKVSYTSYPY | -0.251 |
| HMGPVRRDLEINGRMVPLTIREHARATRITLRIEPGGQALRLTIPPGLPTREVDSFLTRHHGWLMTKLAHI | 0.0131 |
| HMSVTIENQINTYFQTRDKISRDELVALIKKDFANWTDNTINIYVSSLQKRGIIHSLSRGMYALGN | 0.22 |
| HMDDIHTFVYETETPFDPQKLDRYIGSLTAVYGQDMLRYKGILYFAGVDRRVVFQGVHMLAV | -0.353 |
| HMKYYIYQGLGDSGELTKIAEVTDVKTYTATGLEANTKYRFAVSAYNGLRESSKSNIITVTT | -0.325 |
| HMDIHSEEYILGQNIRKYRLRLGWSQADLSNAVDIDRADISKYENGAKGIMSSTLLRKFAKALGVSMDALM | 0.0187 |
| HMTPPLSKIRNMTPDQQRSSVIEARKKGYNLLQLEGLAKAQGATPADLLVLRNAWAQSEFDQKR | 0.331 |
| HMIPEILNGYTKWGDDEPFEDHAGPFYMKMMPSTGRHLSAFIPEQRHMNGGGFLHGGMLMSFADYALFVI | -0.491 |
| HMGGYVVVGDKDGFWSVVSTPVSKAKAEELLKDTTFPKGEKGKIVSVAEAMSHKKVIGKEYLESGGT | 0.0926 |
| HMSQIQIKLDQAIMQLPEKQRFVFMLRYFEELPYEKIAQITETSIGGAKANFHQALKKMQEIIQ | -0.397 |
| HMFYNSSDNAYKILEINKSATVDEIKAAYRKMAKKYHPDKVIHLGQEHQKGAEEKFRQVQEAYEELQKERG | 0.297 |
| HMDTITMAGERYAVSDLEKVSGDIFEKAFGFEIDPKTADAKDVLPTMPKSDVDLFKKLSGIKP | -0.0953 |
| HMDRRSTTLQDIYTRIDAEEISEALELIPKLGEIEFEQNRAEIAEAAGVRPAVLDKLRKQAAKQENNKK | -0.216 |
| HMKAQTVPQFVGMTMTEAEEKASELGITLIEGAVVDSVEPKDTILTQDVDEGTEITGKMEIMVTISS | -0.352 |
| HMPEIFYRKIHRTDHDQIALDAEMIRLLIAIDEKKSLSQIAAEVQMEPMALKKNLGKLIQLGLVEPIK | -0.179 |
| HMEAEPRLLDLPPGTRAGRLDKVLAQLLPEHSRSRLQGWIERGGVLVNGKEASVRQVVGPGDQLTVWEEAA | 0.0341 |
| HMGFSERLAQAMSHAGYTQGGLAKAVGMAQSSVNKLLNNANSSRKTVEIASVLGVRPEWLSTGEGDML | 0.188 |
| HMTKASEELYFRLKEELGTGVIVEHKKYGEGVVTQLDDRLVHIMFQDDTLRMMDLKILANAGLLKVK | -1.87 |
| HMVLQHHTATKALSYHTSASASAAVKGSFARGDSVQVVQGGSQTADGAKWHKVKVGSSYYYAAAEHLTP | -0.616 |
| HMQRIFIDNHDRILYYSNPAGYIAGKEAVVDTMFQTQELERFLQKQSLSIRWEDGVYDRLLLGQ | -0.725 |
| HMGGEPVSARVPDTLHGARLDATAAALFPDFSRSRLAEWIKAGRLRRNDQPAKPRDKVAVDDHLLLIPEY | -0.431 |
| HMAESSPYTVRPGDTLWKILAQTQNARYNDFPYLYRKFRELNPNITDLNHIVSGQKIIVPHIPG | 0.196 |
| HMRDGYEKPTEVGEGGRNPAMLSYIGHLRAKGHLSEEDIRSMAHGFNATTFDPPLDRDEVDGLVSRY | ≥ 0.43 |
| HMSTASPEELRQTPERRRLIEYLREHGGHGRTSEIAAALGIDDSTASRLLRRLADNGLIVRTQYGEYTLLQ | -0.0496 |
| HMSVLDEVRKLSFHQRNAVFLFYFEGYSMKEIAQIFHVKEGTVSSWLTRARKQLRKQMEEEVLYDESLP | -0.0883 |
| HMPERLTYVHPDGAEPMRADKALAAFLSGRISRSRLLGSFSAGKVMAGGKPVEKKLLLRAGDALEVELPEP | 0.0894 |
| HMEDYYKILGVQSNSNPDDIKKAYRKLSLKHHPDRGGDASEFKKINEAYQTLGTPEKRKMYDMQQNN | ≥ 0.43 |
